This note sets out measurements from patent US11371056B2, “HPPD variants and methods of use” (BASF Agricultural Solutions Seed US LLC, priority 2017, dated 2022).

B1: SEQ ID NO:24 (protein)
chain: MADLYENPMGLMGFEFIEFASPTPGTLEPIFEIMGFTKVATHRSKNVHLYRQGEINLILNNEPNSIASYFAAEHGPSVCGMAFRVKDSQKAYNRALELGAQPIHIDTGPMELNLPAIKGIGGAPLYLIDRFGEGSSIYDIDFVYLEGVERNPVGAGLKVIDHLTHNVYRGRMVYWANFYEKLFNFREARYFDIKGEYTGLTSKAMSAPDGMIRIPLNEESSKGAGQIEEFLMQFNGEGIQHVAFLTDDLVKTWDALKKIGMRFMTAPGDEYYEMLEGRLPDHGEPVDQLQARGILLDGSSVEGDKRLLLQIFSERLMGPVFFEFIQRKGDDGFGPHSFKVLFESIERDQVRRGVLTAD
modifications: mutant HPPD polypeptide
B2: SEQ ID NO:46 (protein)
chain: B1 chain with R213K, R315K, H336D
modifications: mutant HPPD polypeptide
B3: SEQ ID NO:49 (protein)
chain: B1 chain with R213K, R315Q
modifications: mutant HPPD polypeptide
B4: SEQ ID NO:37 (protein)
chain: B1 chain with S344Q, I345M
modifications: mutant HPPD polypeptide
B5: SEQ ID NO:29 (protein)
chain: B1 chain with R315K, S344Q
modifications: mutant HPPD polypeptide
B6: SEQ ID NO:39 (protein)
chain: B1 chain with R213K, R315K, H336D, I345M
modifications: mutant HPPD polypeptide
B7: SEQ ID NO:30 (protein)
chain: B1 chain with R315Q, S344Q
modifications: mutant HPPD polypeptide
B8: SEQ ID NO:25 (protein)
chain: B1 chain with R315T
modifications: mutant HPPD polypeptide
B9: SEQ ID NO:34 (protein)
chain: B1 chain with R315T, I345M
modifications: mutant HPPD polypeptide
B10: SEQ ID NO:41 (protein)
chain: B1 chain with R213K, H336D, I345M
modifications: mutant HPPD polypeptide
B11: SEQ ID NO:31 (protein)
chain: B1 chain with R315K, I345M
modifications: mutant HPPD polypeptide
B12: SEQ ID NO:45 (protein)
chain: B1 chain with R213K, R315T, I345M
modifications: mutant HPPD polypeptide
B13: SEQ ID NO:42 (protein)
chain: B1 chain with R213K, R315T, H336D, I345M
modifications: mutant HPPD polypeptide
B14: SEQ ID NO:48 (protein)
chain: B1 chain with R213K, R315T, H336D
modifications: mutant HPPD polypeptide
B15: SEQ ID NO:47 (protein)
chain: B1 chain with R213K, H336D
modifications: mutant HPPD polypeptide
B16: SEQ ID NO:40 (protein)
chain: B1 chain with R213K, R315Q, H336D, I345M
modifications: mutant HPPD polypeptide
B17: SEQ ID NO:44 (protein)
chain: B1 chain with R213K, R315Q, I345M
modifications: mutant HPPD polypeptide
B18: SEQ ID NO:32 (protein)
chain: B1 chain with R315Q, I345M
modifications: mutant HPPD polypeptide
B19: SEQ ID NO:43 (protein)
chain: B1 chain with R213K, R315K, I345M
modifications: mutant HPPD polypeptide
B20: SEQ ID NO:27 (protein)
chain: B1 chain with M264L
modifications: mutant HPPD polypeptide
B21: SEQ ID NO:33 (protein)
chain: B1 chain with I345M
modifications: mutant HPPD polypeptide

Where a chain is given by its changes, count along the chain named.

The test system of one data set is Pseudomonas fluorescens HPPD polypeptide (wild-type and mutants). The data set can be described thus: Coupled HPPD activity assay: turnover and residual turnover in crude HPPD polypeptide extracts with and without Cmpd. 1. The format is biochemical. The note with it: 100 μM Cmpd. 1, normalised to turnover without inhibitor. The protocol:
For the generation of crude HPPD polypeptide extract in micro titer plates (MTP) for the determination of residual activity in inhibition assays, cells were grown in 40 or 150 μl LB medium containing 1% Glucose (Merck, Darmstadt, Germany) and 100 μg/ml ampicillin in a standard 96 well plate (Thermo Fisher Scientific, Waltham, USA) incubated for about 18 h in a humidity incubator at 37° C. 30 μl of this starter culture were added to 600 μl LB medium containing 100 μg/ml ampicillin and 150 mM Hepes (Merck, Darmstadt, Germany) as inoculum for the expression culture in 96 well plates (2 ml deep wells; HJ Bioanalytik, Erkelenz, Germany). The plates were sealed by an aluminium foil, and cells were incubated for 5 h at 37° C. on a plate shaker at 750 rpm. The expression was induced by addition of IPTG in a final concentration of 1 mM followed by further sealed incubation for about 18 h at 30° C. on a plate shaker at 750 rpm.
Cells were harvested by centrifugation at 4° C., 2500 g for 15 min discarding the supernatant. Cell pellets were stored at −80° C. and lysed in 250 μl 1× BugBuster® (Merck, Darmstadt, Germany) in 140 mM Tris (pH 7.8), with 1:25000 diluted BNase® (Qiagen, Hilden, Germany) by incubation of the resuspended cells for 30 min at 4° C. and 1000 rpm. Lysates were clarified by centrifugation for 15 min at 4° C., 2500 g, and 150 μl supernatant were transferred in standard 96 well plate (Thermo Fisher Scientific, Waltham, USA) for subsequent testing in quadruplets.
The activity of HPPD polypeptides was determined in absence or presence of HPPD inhibitors using the coupled HPPD activity assay (FIG. 1).
For the determination of the residual activity, the apparent kinetic constant (kapp) of the determined substrate conversion was measured as kinetic changes in absorbance (OD) at 320 nm in a coupled assay, in that homogentisate (HGA) formed by HPPD from HPP is directly converted into the well absorbing molecule maleylacetoacetate (MAA) by a second enzyme homogentisate dioxygenase (HGD), applied in excess uniformly in all assays (see FIG. 1). The measurements were performed in 384 micro titer plates (Greiner Bio-One GmbH, Frickenhausen, Germany) by plate readers (Tecan infinite M1000 or M1000PRO, Tecan, Männedorf, Switzerland). The kcat/kM ratio of an enzymatic activity is proportional to the apparent kinetic constant kapp and is proportional to kcat/kM*[E] ([E]=enzyme concentration). […] As both kapp measurements in the presence and absence of inhibitor were performed by use of the identical enzyme sample, crude or purified, and thereby at the same enzyme concentration, the enzyme concentration eliminates from the calculation of residual activity and the ratio of both kapp directly indicates the change of kM due to the inhibition.
The assay solution used for determination of residual activities in raw HPPD polypeptide samples was composed by 200 mM sodium phosphate (Merck, Darmstadt, Germany, pH 7.0), 5 mM MgCl2 (Merck, Darmstadt, Germany), 20 mM ascorbate (Sigma-Aldrich, St. Louis, USA), 1 mM DTT (Sigma-Aldrich, St. Louis, USA), 0.1% Pluronic F-68 (Sigma-Aldrich, St. Louis, USA), 40 μM FeSO4 (Sigma-Aldrich, St. […] Louis, USA) and equilibrated for 20 min on ice.
For the molecule B1, the “Residual turnover [%]” value is on record as 54%.
The same measure, in the same setting: under B2 stands 36%; under B3, 52%; under B4, 42%.
With B5, the “Residual turnover [%]” value came out at 61%.
Still for that read-out and setting: under B6 stands 32%; under B7, 61%; under B8, 45%.
For B9, the “Residual turnover [%]” value came out at 53%.
Still for that read-out and setting: the result for B10 reads 43%; that for B11, 48%.
Regarding B12, the “Residual turnover [%]” value came to 60%.
In the case of B13, the “Residual turnover [%]” value worked out at 33%.
The same measure, in the same setting: under B14 stands 38%.
Still for that read-out and setting: the result for B15 reads 68%; that for B16, 36%.
B17: the “Residual turnover [%]” value is 54%.
For B18, the “Residual turnover [%]” value came to 57%.
On the same count and under the same terms, under B19 stands 54%; under B20, 58%.

Still in this data set, the particulars now being: absence of Cmpd. 1; changes in absorbance (OD) at 320 nm in the coupled assay, 30 min.
Regarding B1, the Turnover was determined as 0.271.
Still for that read-out and setting: the result for B2 reads 0.162; that for B21, 0.015; that for B3, 0.318.
On to B4, for which the Turnover is 0.106.
Still for that read-out and setting: the result for B5 reads 0.286; that for B6, 0.176.
The molecule B7 came in with a Turnover of 0.294.
As to B8, the Turnover is recorded as 0.25.
For B9, the Turnover is reported as 0.278.
In turn, B10 displayed a Turnover of 0.247.
The molecule B11 returned a Turnover of 0.268.
B12 yielded a Turnover of 0.275.
For the molecule B13, the Turnover came out at 0.209.
As for B14, the Turnover is reported as 0.161.
Molecule B15 had a Turnover of 0.09.
Same read-out and setting: the result for B16 reads 0.204.
Turning to B17, the Turnover is 0.272.
The molecule B18 gave a Turnover of 0.269.
Still for that read-out and setting: the result for B19 reads 0.291.
For the molecule B20, the Turnover is 0.262.

The data set is the same for the next values; noted with them: presence of 100 μM Cmpd. 1; changes in absorbance (OD) at 320 nm in the coupled assay, 30 min.
For the molecule B1, the Residual turnover turned out to be 0.147.
With B2, the Residual turnover stood at 0.059.
On to B21, for which the Residual turnover is 0.014.
Take B3: the Residual turnover turned out to be 0.165.
With B4, the Residual turnover is recorded as 0.045.
On the same count and under the same terms, under B5 stands 0.174; under B6, 0.057; under B7, 0.18.
For B8, the Residual turnover came to 0.112.
Still for that read-out and setting: under B9 stands 0.148; under B10, 0.105.
The same measure, in the same setting: the result for B11 reads 0.128.
Still for that read-out and setting: the result for B12 reads 0.164.
Take B13: the Residual turnover is on record as 0.068.
Consider B14, for which the Residual turnover is on record as 0.061.
Take B15: the Residual turnover amounted to 0.061.
On to B16, for which the Residual turnover came to 0.073.
For B17, the Residual turnover was 0.148.
As to B18, the Residual turnover is recorded as 0.154.
For B19, the Residual turnover came to 0.157.
As for B20, the Residual turnover was determined as 0.153.
